The data set in a line: label from the status in PepcDB records.
For “MHHYRVSGWTLATEIPLPHLFPCSAPAGEAAADITLRQGPVPPPPVPLRLDRDGIQVGADGHTVIDIPNCVRIGLTGGRDIMVDPAPGASWPEIQTWLLGPGLGVICHQRGVLPLHACAIRTGKGGLAIVGNSGAGKSTTATALVQRGHRLLGDDVLVVDPDTGLAQPCFPMVKLWDSSRSALDIGQEGQQSVGGKIGKWHMPMLAAFDPVPRPLSAIVHLRADPAARRPVLTRWPRPHAAAVLDAMTYRVYLADALHGRRHVLSAATRLAAHVPVWELVRTADFADLAEMLDMLEGLAGALEHHHHHH”, the protein production result is reported as “failed”.

On to “MNRDLSSFKRTMNTLAVSSDVAFFNITLRFWIRRNDETREQGKFKPHTDLPRLQSFYLDYYQKNVMDVIKIIGNQYTILKEIESSAHSAAIRAIHAALPPHKINGDSRKQADSYIQHACDTAGVLFRVLELLSEDVQLPSEFLEADADVKQLAEIFRPYNIIPLYICGKYSMKRLPEY”, for which the protein production result is “failed”.

For “MNTRLNEPDLPGDIDIKDLDPLVLQDLKVLSKDNADAVAKHMIMAATWLADDPQLALRHARAAKDRAGRVSVVRETNGIAAYHAGEWKEALSELRAARRMSGGPGLIAVMADCERGLGRPEKAIELAREEDLSSLDQDNLIELAIVVAGARHDLGQHDSAIVELQKVNPSLKSTGFTHSRLSYAYADALVLAGRGDEAREWFQHAATLDEDGYLDAEERIEQLDNGNN”, the protein production result was “failed”.

For “MCGDCVEKEYPNRGNTCLENGSFLLNFTGCAVCSKRDFMLITNKSLKEEDGEEIVTYDHLCKNCHHVIARHEYTFSIMDEFQEYTMLCLLCGKAEDTISILPDDPRQMTLLF”, the protein production entry is given as “failed”.

As to “MSAEPRLHTLRVARTARVATLGTPATAGSWWVVLHGYGQLAADFVSAFHPLVAPDRCVVAPEGLSRFYVDGMAQHEQVGASWMTREAREAEVSDYVDALDATVRHLADDTPPSLHVLGFSQGAVTASRWALWGDTAVDRLVLWGGAPAHDLDLAEHAASLRALDLTLVAGTEDPYVTDDRWAAIRRRLQAHDIPVTTRTFEGGHRIDPAPLRALVAPA”, the protein production result was “failed”.

For the sequence “TGDASKCLATGPGIASTVKTGEEVGFVVDAKTAGKGKVTCTVLTPDGTEAEADVIENEDGTYDIFYTAAKPGTYVIYVRFGGVDIPNSPFTVMATDGEVTAVEEAPVNACP”, the protein production entry is “not failed”.

As to “MIPIHPVGGSQTPASSTAAAGTGDAVTSVFLQPGRISLPASPPLSLYVHVPWCVRKCPYCDFNSHAEPEAGIPEDRFLAAIRQDLEAALPMVWGRRVHTIFIGGGTPSLLSARGLDTLLSDIRMLLPVDADAEITMEANPGTFEAERFRSYRASGVNRLSIGIQSFNDTHLQALGRIHSAAEARAAIDIARAHFDNINLDLMFALPGQTLAECEADVEAALSFGTSHVSLYHLTLEPNTYFAKHPPALPDDDTAFAMQDWIHARLAAAGYEHYEVSAYARPGKRCKHNLNYWQFGDYLGIGPGAHGKLSFPHRVIRDMRHKHPETYLRQAETAGGATVVQEQREVDAADLPFEFMLNALRLTDGFPVTLFQERTGLPLRGIERELDAAERRGLLVHDHATIRPTELGQRFLNDLQALFLADDEN”, the protein production entry is reported as “failed”.

On to “MKVYFDDIYVSTARQFELVDITDQVEQIVEKSGIKNGICLIFVAHSTAAIVANEHERGLMEDILTKIKEFTEPSRSWKHNLIDDNAHAHLGATFLGAERVFPVREGKLVRGTWQNIFLVELDGPRSERHITVEILGE”, for which the protein production result is “not failed”.

Regarding “MNYHWSDHPDPNKWADCVHCGMCLEACPTYELTGHEQQSPRGRVHLIKSVAEGKLEVNEAFADPVFTCLDCRACETACPADVEVGGLIEEARGQIRQALPLSGWKLEHHHHHH”, the protein production entry is recorded as “failed”.

As for “MKYSLCTISFRHQLISFTDIVQFAYENGFEGIELWGTHAQNLYMQEYETTERELNCLKDKTLEITMISDYLDISLSADFEKTIEKCEQLAILANWFKTNKIRTFAGQKGSADFSQQERQEYVNRIRMICELFAQHNMYVLLETHPNTLTDTLPSTLELLGEVDHPNLKINLDFLHIWESGADPVDSFQQLRPWIQHYHFKNISSADYLHVFEPNNVYAAAGNRTGMVPLFEGIVNYDEIIQEVRDTDHFASLEWFGHNAKDILKAEMKVLTNRNLEVVTS”, the protein production result is on record as “not failed”.

“MLRYLALSEAGIAKLPRPQSRCYHSEKGVWGYKPIAQREFQVAEDVRASRNSQANVYRFVEAFRQHGHKLAAVNPISIRTSQQELQELSPAFYGLQTQEPVRTDGLLSGPQVAHNVAQLEQLLKDIYCGRSTSAEFSYVEDIEEREWLARNFETLDQQQLGKSERCEIAELLIKSQAWDNFMALKFPTVKRYGGEGAESMLAFFWQLLRDSVQANIEHVVLAMPHRGRTPLQAALLNMRPAKVFRKLSGASEFSEDIEAMSDVISHFHVSEQLKILGKKLSFSMVRNPSHLEAANPVAMGKTRSKQQARGEGAFGDGSQPFGEHVLNVILHGDAAFAGQGINQECLNMAYVPHFEVGGSLHLIVNNQVGFTTPGDRGRSTAYTSDLAKSIQAPVFHVNGDDPEALARVTSLAFRYQREFRKDIFIDLNCFRRWGHNELDDPTFTNPLVYKIVHQRESVPDLYAQQLAKEQVLSESKAKEMRDEYMKYLGEELALAPAYQPPPSYFEKQWTNFQLAPSKELTYWDTGLDYSLLHYIGQQSVTFPEDFNIHPHLLKTHVNARLKKLENGVKIDWSTAEALAIGSLMYQGHNVRISGEDVGRGTFSHRHAMLVDQQTNEMFIPLNSMEGGNGGKLELAHSILSEEAVLGFEYGMAIDNPNNLIIWEAQFGDFANGAQIIIDTFIVSGETKWMESNALVMLLPHGYDGAASEHSSCRIERFLQLCDSKETSADGDSVNVHIVNPTTPAQYYHVLRRQLARNFRKPLVVVAPKTLLRLPAATSTHEDFQPGTLFHNVLGDTIAKPEQVRKVILCSGKHYYTLAEEREKRQAYDTAILRLESLCPFPIQELQAQLAQYGNVQSFVWSQEEHRNMGAWTFVRPRFENLIGQQLHYCGRCEAPTPATGIGKVHKREVDEIVAAPFEL”: the protein production result is given as “failed”.

As for “MNIEQMLAILDPDVVQRLKIAVEIGKWPNGVALTAEQRQICMQAVMIWEHKHLPEEERTGYIDRGTKEEGEECDSHEPEIKPIRFI”, the protein production entry is on record as “failed”.

Take “MLLSKKSEYKTLSTVEHPQYIVFCDFDETYFPHTIDEQKQQDIYELEDYLEQKSKDGELIIGWVTGSSIESILDKMGRGKFRYFPHFIASDLGTEITYFSEHNFGQQDNKWNSRINEGFSKEKVEKLVKQLHENHNILLNPQTQLGKSRYKHNFYYQEQDEINDKKNLLAIEKICEEYGVSVNINRCNPLAGDPEDSYDVDFIPIGTGKNEIVTFMLEKYNLNTERAIAFGDSGNDVRMLQTVGNGYLLKNATQEAKNLHNLITDSEYSKGITNTLKKLIGFMRRK”: the protein production result was “not failed”.

In the case of “MRMVAHRFLRPQEAHMQVLVRDNNVDQALRILKKKLQREGVFREMRLREAFEKPSIKKAREKAEAIGRQRKLARKQMQREGLLPTKPRKDKLEHHHHHH”, the protein production result is “failed”.

With “MKIRFISLASGSSGNCYYLGTEKYGILIDAGIGIRTIKKSLKDINVTMDSIRAVFITHDHADHIKAVGHLGEKLNIPVYTTARVHAGINKSYCMTEKLHGSVRYLEKEEPMLLEDFRIESFEVPHDGTDNVGYCIEIDGKVFSFLTDLGEITPTAARYICKAHYLIIEANYDEEMLRMGPYPTYLKERISSKTGHMSNIDTANFLAENIMEHLRYIWLCHLSKDNNHPELAYKTVEWKLKSKGIIVGKDVQLLALKRNTPSELYEFE”, the protein production result is listed as “failed”.

As to “MEGFPVRVRVDVRFRDLDPLGHVNNAVFLSYMELARIRYFQRISPDWLEEGHFVVARMEVDYLRPILLGDEVFVGVRTVGLGRSSLRMEHLVTANGESAAKGLGVLVWLEGGRPAPLPEAIRERIRALEGRPL”, the protein production result was “not failed”.

For the sequence “MKLVICAGPATTGKTAVLRHAIGKLIGRGFKPAFLKIDVQYAEEDEQFAREFAIPTRKTYSGDLCPDHCTVMVLGEALEWAGRQGADVLLVETAGLCLRCSPYVDGGLGVIVLEATSGMNLPLKVGPMLSLADVAVVTKIDRISQAEREVFRARIQDVAPGVRIREANALHGIGIDPLVDQIQATPDVDATLSLRGNPPVGTCTICVGKKEIGWKAHFGVVRSLENQTFYRGELEHHHHHH”, the protein production result is “failed”.

With “MSTVKNGTLEQDKLNWFKYLLFGIQHVLVMIAVPITSVFLVAKALSLSDQLTVNLMSATFLVCGLGTLLQSIGVYKFGSRLPFVMIPGGAPIVMFLGIAQEKDLATASGAVILTSLFYFIILPVFKRFLRFFPNIVIGTLLILVSINLIKIYGGLVIGKPDTADFASTLNIGLAFATIAASLFFARVLKGTLSQLSILLGLIFGTILSAFLGQMHFETITQPTIFSLPTIMPFGVPKFDLVATIPLLIFSLISMVEATGQTIAISDLVGKKETAFERVPPTIRGDALISLLGGWLGTSMIITSGENIGIVRATQVRSRYVTIIAGIILLIISVFTPLAHLANAIPVAVVSGTAIIVFSIIGTIGIDILRRVDLHEKGNMYVLAGALTMGLLPILVNGVYTNFPHALQPILNNGLAMGALTAILLNIVFSTHSQADAHQESK”, the protein production result was “failed”.

In the case of “MYIICSQFSASEPVNPYALLGAAIVSELLGTTSLKLSEGFSRPVPSLGVVVGYGLAFYLVSLTLEDLPIGVVYGTWAALGIVGVAAIGIVVFDEPIDLPGAVGILLIIIGVYCVNVLSEMSAH”, the protein production result was “failed”.

In the case of “MDSDPLGVFPNSPKYHPYYSQTTEFGGVIDLGLSLRTIQHEIYHSSGQIMTCGKGYCSNEGYRRKWGYVKVTMDGLVVGRKVCVLDHGSYSTLAHQLEDMFGMQSVSGLRLFQMESEFCLVYRDEEGLWRNAGDVPWNEFIESVERLRITRRNDAVLPF”, the protein production entry is “failed”.

Turning to “MFMYTEFRSQLLAGAGTSAAGQSARMAVLAGDGATGVQVSCVVPGLNEAANLRVLVPALRACLEQWCASWEIIVVDDGSTDDTAELMAQWSAVEGIRYVQLSRNFGKEAALTAGLEAADGDAVICLDADMQHPPELIGDMLAAWRNGADMVYAVRRQRDDEPWFKRVGARAFYRLLSTARGVEVPPHAGDFRLMDRRVVEALVALPERTRFMKGLYAWVGFKSQAVPYTPQARRHGASHFSAWKLFRLACDGLTAFTTWPLRLVSLIGVLFALLSLSYGGYLVADYLISGNAVSGWTTIVTALLFFAGINLISLGVVGEYVARIFDEVKGRPLFIARQRRGRAKRAAKARSQ”, the protein production entry is recorded as “failed”.

With “MTFKQVADDWLKQYANDVKVSSVRAREKAIQHAIERFNTKPIQTIKKHDYQRFVDDISAQYSKNYVDSIVASTNMIFKYAYDTRLIKAMPSEGIKRPKKKVSVELEHHHHHH”, the protein production entry was “not failed”.

As for “MPGWHAGGKPACRVPLLTKTGRFKRPVFSSSLSATPRFVAALRSTLLYEGAQHMLKLFVRNLPPQTTEAGLKELFTGYGKVFELQLSRDMFTGKARGTASVSMEGHEARKAIEALDGSDYEGKTIYVALDKGPRSGGRGRR”, the protein production result is listed as “failed”.

Take “MSLAEGKWWRIMLVDTQLPALAASISALSQEGFDIIQCGNAIEAVPVAVKTHPHLIITEANMPKISGMDLFNSLKKNPQTASIPVIALSGRATAKEEAQLLDMGFIDFIAKPVNAIRLSARIKRVLKLLYEDLSAPPAREGHHHHHH”: the protein production result is listed as “not failed”.

As to “AIARSEWPFDYASEADAMLHRITPENFEKLVRFAARLLRVGEIIALPTDTVYGLAAAARNSHGIELLYQTKQRDLRKPLAIAVPSVEDVSVYLHTEHLPPGLLEAILPGPLTLLLRQREDYVGIDLQDVRIDQYRGWERAKRLAPNLNLRRDGLLGVRVPDASFACAVSRELGDPLALTSANVSGRGDCGSVDEFRALWSACAAVFDGGAMPKPVMPSTVVDLSVPGTFRITRAGWMATDLVRILENKFGLTNKSANTSN”, the protein production result is given as “failed”.

Values taken from a protein production outcome set (Wang et al. 2014).
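Further: failed if final PepcDB status was selected cloned or expressed and not failed if soluble or beyond.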
